# Laboratory results reported in patent US20220175839.
# Assays:
# Experiment in all cases: cell_activity
# TALEN 103103 (synthetic) = settings: pair with 103104; K562, 400 ng
# TALEN 103112 (synthetic) = settings: pair with 103111; K562, 400 ng
# TALEN 103097 (synthetic) = settings: pair with 103098; K562, 400 ng
# TALEN 103100 (synthetic) = settings: pair with 103099; K562, 400 ng
# TALEN 103099 (synthetic) = settings: pair with 103100; K562, 400 ng
# TALEN 103111 (synthetic) = settings: pair with 103112; K562, 400 ng
# TALEN 103108 (synthetic) = settings: pair with 103107; K562, 400 ng
# TALEN 103110 (synthetic) = settings: pair with 103109; K562, 400 ng
# TALEN 103098 (synthetic) = settings: pair with 103097; K562, 400 ng
# TALEN 103094 (synthetic) = settings: pair with 103093; K562, 400 ng
# TALEN 103093 (synthetic) = settings: pair with 103094; K562, 400 ng
# TALEN 103119 (synthetic) = settings: pair with 103120 (not in Table 2B); K562, 400 ng
# TALEN 103109 (synthetic) = settings: pair with 103110; K562, 400 ng
# TALEN 103107 (synthetic) = settings: pair with 103108; K562, 400 ng
# TALEN 103105 (synthetic) = settings: pair with 103106; K562, 400 ng
# TALEN 103101 (synthetic) = settings: pair with 103102; K562, 400 ng
# TALEN 103096 (synthetic) = settings: pair with 103095; K562, 400 ng
# TALEN 103118 (synthetic) = settings: pair with 103117; K562, 400 ng
# TALEN 103104 (synthetic) = settings: pair with 103103; K562, 400 ng
# TALEN 103088 (synthetic) = settings: pair with 103087; K562, 400 ng
# TALEN 103116 (synthetic) = settings: pair with 103115; K562, 400 ng
# TALEN 103091 (synthetic) = settings: pair with 103092; K562, 400 ng
# TALEN 103089 (synthetic) = settings: pair with 103090; K562, 400 ng
# TALEN 103095 (synthetic) = settings: pair with 103096; K562, 400 ng
# TALEN 103090 (synthetic) = settings: pair with 103089; K562, 400 ng
# TALEN 103113 (synthetic) = settings: pair with 103114; K562, 400 ng
# TALEN 103092 (synthetic) = settings: pair with 103091; K562, 400 ng
# TALEN 103115 (synthetic) = settings: pair with 103116; K562, 400 ng
# TALEN 103114 (synthetic) = settings: pair with 103113; K562, 400 ng
# TALEN 103117 (synthetic) = settings: pair with 103118; K562, 400 ng
# TALEN 103106 (synthetic) = settings: pair with 103105; K562, 400 ng
# TALEN 103102 (synthetic) = settings: pair with 103101; K562, 400 ng
sequence,measurement,setting,value
CTATCTCTTGTACTACACTGA (double strand) [TALEN 103103 site],activity,TALEN 103103 (synthetic),44.9 % indel
CTGTGACAAAGTCACATGGTT (double strand) [TALEN 103112 site],activity,TALEN 103112 (synthetic),26.5 % indel
CTTGTCTTTCAGCAAGGACTG (double strand) [TALEN 103097 site],activity,TALEN 103097 (synthetic),52 % indel
GTGAATTCAGTGTAGTACAAG (double strand) [TALEN 103100 site],activity,TALEN 103100 (synthetic),15.3 % indel
CTTTCAGCAAGGACTGGTCTT (double strand) [TALEN 103099 site],activity,TALEN 103099 (synthetic),15.3 % indel
CTGAAAAAGATGAGTATGCCT (double strand) [TALEN 103111 site],activity,TALEN 103111 (synthetic),26.5 % indel
GTCACATGGTTCACACGGCAG (double strand) [TALEN 103108/103110 site],activity,TALEN 103108 (synthetic),4.2 % indel
same,activity,TALEN 103110 (synthetic),8 % indel
ATTCAGTGTAGTACAAGAGAT (double strand) [TALEN 103098 site],activity,TALEN 103098 (synthetic),52 % indel
CTTGCTGAAAGACAAGTCTGA (double strand) [TALEN 103094 site],activity,TALEN 103094 (synthetic),20.2 % indel
ATGGAGAGAGAATTGAAAAAG (double strand) [TALEN 103093 site],activity,TALEN 103093 (synthetic),20.2 % indel
ATGTGACTTTGTCACAGCCCA (double strand) [TALEN 103119 site],activity,TALEN 103119 (synthetic),57.7 % indel
ATTCACCCCCACTGAAAAAGA (double strand) [TALEN 103107/103109 site],activity,TALEN 103109 (synthetic),8 % indel
same,activity,TALEN 103107 (synthetic),4.2 % indel
CTACACTGAATTCACCCCCAC (double strand) [TALEN 103105 site],activity,TALEN 103105 (synthetic),14.2 % indel
CTGGTCTTTCTATCTCTTGTA (double strand) [TALEN 103101 site],activity,TALEN 103101 (synthetic),15.5 % indel
GTGTAGTACAAGAGATAGAAA (double strand) [TALEN 103096 site],activity,TALEN 103096 (synthetic),42 % indel
TTACCCCACTTAACTATCTTG (double strand) [TALEN 103118 site],activity,TALEN 103118 (synthetic),45.7 % indel
ATACTCATCTTTTTCAGTGGG (double strand) [TALEN 103104 site],activity,TALEN 103104 (synthetic),44.9 % indel
CTTTTTCAATTCTCTCTCCAT (double strand) [TALEN 103088 site],activity,TALEN 103088 (synthetic),10.5 % indel
TTAACTATCTTGGGCTGTGAC (double strand) [TALEN 103116 site],activity,TALEN 103116 (synthetic),66.1 % indel
GTTGACTTACTGAAGAATGGA (double strand) [TALEN 103091 site],activity,TALEN 103091 (synthetic),48.5 % indel
TTGAAGTTGACTTACTGAAGA (double strand) [TALEN 103089 site],activity,TALEN 103089 (synthetic),16.1 % indel
TTCAGACTTGTCTTTCAGCAA (double strand) [TALEN 103095 site],activity,TALEN 103095 (synthetic),42 % indel
ATGCTCCACTTTTTCAATTCT (double strand) [TALEN 103090 site],activity,TALEN 103090 (synthetic),16.1 % indel
ATGAGTATGCCTGCCGTGTGA (double strand) [TALEN 103113 site],activity,TALEN 103113 (synthetic),26.6 % indel
GTCTGAATGCTCCACTTTTTC (double strand) [TALEN 103092 site],activity,TALEN 103092 (synthetic),48.5 % indel
GTATGCCTGCCGTGTGAACCA (double strand) [TALEN 103115 site],activity,TALEN 103115 (synthetic),66.1 % indel
CTATCTTGGGCTGTGACAAAG (double strand) [TALEN 103114 site],activity,TALEN 103114 (synthetic),26.6 % indel
GTGTGAACCATGTGACTTTGT (double strand) [TALEN 103117 site],activity,TALEN 103117 (synthetic),45.7 % indel
TTCACACGGCAGGCATACTCA (double strand) [TALEN 103106 site],activity,TALEN 103106 (synthetic),14.2 % indel
TTTTTCAGTGGGGGTGAATTC (double strand) [TALEN 103102 site],activity,TALEN 103102 (synthetic),15.5 % indel
